For five molecules, binding result and Kd results are on record in paper PMC8804933 (The EMBO Journal, 2021).

Bounds are passed on as bounds.

Test [1] addresses T1, ubiquitin (unlabeled, wild-type) (human, UniProt P0CG48 1-76). Kind of test: NMR titration.
Test [2] has as its target T1, ubiquitin (unlabeled, wild-type). Kind of test: BLI.

B1: 15N-labeled UBE2S UBC E139R/E143R (residues 1-156) (domain or fragment)
chain: MNSNVENLPPHIIRLVYKEVTTLTADPPDGIKVFPNEEDLTDLQVTIEGPEGTPYAGGLFRMKLLLGKDFPASPPKGYFLTKIFHPNVGANGEICVNVLKRDWTAELGIRHVLLTIKCLLIHPNPESALNEEAGRLLLRNYERYAARARLLTEIHG
B1: in test [1], the binding result was “binds”.

B2: 15N-labeled UBE2S UBC E143R (residues 1-156) (domain or fragment)
chain: MNSNVENLPPHIIRLVYKEVTTLTADPPDGIKVFPNEEDLTDLQVTIEGPEGTPYAGGLFRMKLLLGKDFPASPPKGYFLTKIFHPNVGANGEICVNVLKRDWTAELGIRHVLLTIKCLLIHPNPESALNEEAGRLLLENYERYAARARLLTEIHG
B2: the binding result in test [1] is reported as “binds”.

B3: 15N-labeled UBE2S UBC E139R (residues 1-156) (domain or fragment)
chain: MNSNVENLPPHIIRLVYKEVTTLTADPPDGIKVFPNEEDLTDLQVTIEGPEGTPYAGGLFRMKLLLGKDFPASPPKGYFLTKIFHPNVGANGEICVNVLKRDWTAELGIRHVLLTIKCLLIHPNPESALNEEAGRLLLRNYEEYAARARLLTEIHG
Regarding B3, in test [1], the binding result was “binds”.

B4: GST-UBE2R2 wild-type (enzyme)
chain: MAQQQMTSSQKALMLELKSLQEEPVEGFRITLVDESDLYNWEVAIFGPPNTLYEGGYFKAHIKFPIDYPYSPPTFRFLTKMWHPNIYENGDVCISILHPPVDDPQSGELPSERWNPTQNVRTILLSVISLLNEPNTFSPANVDASVMFRKWRDSKGKDKEYAEIIRKQVSATKAEAEKDGVKVPTTLAEYCIKTKVPSNDNSSDLLYDDLYDDDIDDEDEEEEDADCYDDDDSGNEES
What is called Kd is the free concentration of one partner at which half of the binding sites on the other are occupied at equilibrium, for simple one-to-one binding. A higher Kd goes with weaker binding. B4: in test [2], binding was put at a Kd of 650 µM.

B5: GST-UBE2R2 R149E (enzyme)
chain: MAQQQMTSSQKALMLELKSLQEEPVEGFRITLVDESDLYNWEVAIFGPPNTLYEGGYFKAHIKFPIDYPYSPPTFRFLTKMWHPNIYENGDVCISILHPPVDDPQSGELPSERWNPTQNVRTILLSVISLLNEPNTFSPANVDASVMFEKWRDSKGKDKEYAEIIRKQVSATKAEAEKDGVKVPTTLAEYCIKTKVPSNDNSSDLLYDDLYDDDIDDEDEEEEDADCYDDDDSGNEES
Molecule B5 returned a Kd in test [2] of more than 4000 µM.
